{"source": "patent US20130108641A1", "about": "(Sanofi, published 2013)", "binders": {"B1": {"name": "anti-GITR antibody clone 2155 (murine) (antibody, V domains shown)", "VH": "EVKLVESGGGLVKPGGSLKLSCGASGFTISSYAMSWVRQSPEKRLEWVAIISTGGSTYYPDSVRGRFTISRDNARNSLYLQMSSLRSEDTAMYYCARVGGYYDSMDHWGQGTSVTVSS", "VL": "not shown", "notes": "Murine hybridoma antibody"}, "B2": {"name": "anti-GITR antibody clone 1718 (antibody, V domains shown)", "VH": "QVQVQQSGPELVKPGASVRISCKASDYTFTNYYIHWVRQRPGQGLEWLGWIYPGKGYTNYNEKFKGKATLTADKSSSTAYMQFSSLTSEDSAVYFCASGYGNYYFPYWGQGTLVTVSA", "VL": "IQMTQSSSYLSVSLGGRVTITCKASDHIKNWLAWYQQKPGNVPRLLMSAATSLETGFPSRFSGSGSGKDFTLTITSLQTEDVATYYCQQYWSTPWTFGGGTKLEIK", "notes": "Murine hybridoma antibody; also called 1718-GITR2; 1718 GITR-2"}}, "key": {"[1]": {"biological_target": "T1, cynomolgus monkey GITR-Fc (cynomolgus monkey)", "T1 construct": "extracellular domain; also called cGITR-FC; cGITR", "assay": "SPR; KD on cGITR-Fc over KD on hGITR-Fc", "experimental": "(§1) The binding kinetics of several anti-GITR antibodies to recombinant human GITR (hGITR) and cynomolgus monkey GITR (cGITR) were determined by surface plasmon resonance assay using a BIAcore 2000 (BIAcore Inc., […].). Briefly, a CM5 BIAcore biosensor chip was docked into the instrument and activated with 250 μL of 1:1 NHS/EDC at room temperature. A rabbit anti-mouse Fc IgG1 mAb (BIAcore #BR-1005-14) (13.5 μg/mL in 0.05M acetate buffer, pH 5) was immobilized on the activated chips in Flow cell 1. The immobilization was carried out at a flow rate of 5 μL/min. The chip was then blocked by injection of 55 μL of ethanolamine-HCl, pH 8.5, followed by five washes with 50 mM NaOH, 1M NaCl. To measure the binding of anti-GITR mabs to the human GITR protein or cyno GITR protein, antibodies were used at 2 μg/mL in BIAcore running buffer (HBS-EP). Antigens (human GITR or cyno GITR) were injected from 3 to 1000 nM. Following completion of the injection phase, dissociation was monitored in a BIAcore running buffer at the same flow rate for 360 sec. The surface was regenerated between injections using 30 μL of 50 mM NaOH-1 M NaCl. Individual sensorgrams were analyzed using […]."}, "[2]": {"biological_target": "T2, human GITR-Fc fusion protein (human, UniProt Q9Y5U5 26-162)", "T2 construct": "extracellular domain; also called hGITR-Fc; recombinant human GITR-Fc; not shown: Fc part", "T2 sequence (looked up)": "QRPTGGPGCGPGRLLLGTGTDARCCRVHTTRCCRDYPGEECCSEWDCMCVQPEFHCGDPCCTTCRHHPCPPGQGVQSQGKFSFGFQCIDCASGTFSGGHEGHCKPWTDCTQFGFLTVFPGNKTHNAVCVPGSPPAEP", "assay": "SPR (BIAcore 2000), mAb captured on anti-mouse Fc, antigen injected", "experimental": "as §1"}, "[3]": {"biological_target": "T1, cynomolgus monkey GITR-Fc", "assay": "SPR (BIAcore 2000), mAb captured on anti-mouse Fc, antigen injected", "experimental": "as §1"}, "[4]": {"biological_target": "T3, human GITR expressed on cells (human, UniProt Q9Y5U5 26-241)", "T3 construct": "whole, on cells; Used for HEK293 transfectants and for PHA-stimulated human PBMCs; also called hGITR; cell surface hGITR", "T3 sequence (looked up)": "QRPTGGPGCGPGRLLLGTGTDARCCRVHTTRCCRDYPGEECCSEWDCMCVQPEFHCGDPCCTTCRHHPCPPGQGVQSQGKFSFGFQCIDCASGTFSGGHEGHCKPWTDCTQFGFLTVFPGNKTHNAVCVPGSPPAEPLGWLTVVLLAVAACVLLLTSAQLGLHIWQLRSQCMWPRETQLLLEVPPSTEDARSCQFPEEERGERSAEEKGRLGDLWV", "assay": "Meso Scale assay, Sulfo-conjugated antibody on coated HEK293-Trex-hGITR cells", "experimental": "The binding kinetics of anti-GITR antibodies to hGITR expressed on the surface of HEK293 cells were determined by Meso Scale assay. HEK293-Trex-hGITR cells (#2404) were coated at 25000 cells/well on a 96-well High Bind plate (MSD L15XB-3) for 2 hours at room temperature. Wells were washed 2 times with 150 μl/well of PBS and blocked with 150 μl/well of blocking solution for 30 min at room temperature. Following two washes with 150 μl/well of PBS, 25 μL/well of Sulfo-conjugated antibodies were added in 2-fold serial dilutions starting at 100 μg/ml up to 12 dilutions in assay diluent and incubated for 45 min at room temperature followed by two washes with PBS. The antibody binding was evaluated by adding 150 μl/well 1× Read buffer T without surfactant and read using the Mesoscale instrument."}, "[5]": {"biological_target": "T4, cynomolgus monkey GITR on PBMCs (cynomolgus monkey)", "T4 construct": "whole, on cells; also called cynoGITR-expressing PBMCs", "assay": "FACS, Alexa488-labeled antibody on PHA-stimulated cynomolgus monkey PBMCs", "experimental": "(§2) Specifically, human or cynomolgus monkey peripheral blood mononuclear cells were isloated and diluted to 2×10^6/ml in RPMI-1640 medium containing 10% FBS. The cells were then stimulated with 5 ug/ml phytohaemagglutinin (PHA) for 72 hours in 6 well plates. […] The cells were then washed 2 times with FACS stain buffer (Becton Dickinson) and then co-stained with 50 ul of CD4-APC for 20 minutes in the dark at 4° C. The cells were then washed again 2 times with FACS stain buffer before being resuspended in 150 μL of FACS stain buffer (Becton Dickinson) and analyzed using a FACS Calibur instrument. from which binding curves were generated. Equilibrium dissociation constants (KD) for each antibody were determined from the binding curves."}, "[6]": {"biological_target": "T2, human GITR-Fc fusion protein", "assay": "competition ELISA, GITRL coated, GITR-Fc 0.25 µg/mL pre-incubated with antibody", "experimental": "The ability of anti-GITR antibodies to inhibit the binding of human GITRL to hGITR was assessed using a competition ELISA. Ninety-six well plates were coated with GITR-Ligand protein at 0.5 μg/well at 4° C., overnight. Wells were washed with washing buffer (PBS pH 7.4+0.05 Tween 20) and blocked with 200 μL of blocking buffer (PBS pH 7.4+0.05% Tween 20+1% BSA) for 1 hour at room temperature. Wells were then washed two times with washing buffer and exposed to 100 μL of pre-incubated mixtures of GITR-Fc at 0.25 μg/mL plus anti-GITR antibody in 2-fold serial dilutions starting at 10 μg/ml up to 12 dilutions for 1 hour at room temperature with agitation. Plates were washed four times with washing buffer and GITR-Ligand-bound recombinant human GITR-Fc was detected with the use of peroxidase-conjugated goat anti-human IgG-Fc (Sigma), followed by incubation with the TMB substrate (Interchim)\nAll antibodies generated using the methods disclosed herein were able to antagonize the binding of GITRL to GITR more potently than the prior art MAB689 antibody."}, "[7]": {"biological_target": "T3, human GITR expressed on cells", "assay": "FACS, Alexa488-labeled antibody on PHA-stimulated human PBMCs", "experimental": "as §2"}, "[8]": {"biological_target": "T3, human GITR expressed on cells", "assay": "cell-based or functional assay"}}}
{"binder": "B1", "values": [{"measurement": "Ratio cKD/hKD", "setting": "[1]", "value": 2.3}, {"measurement": "Kd", "setting": "[2]", "value": 990, "unit": "pM"}, {"measurement": "koff", "setting": "[2]", "value": 0.000508, "unit": "s⁻¹"}, {"measurement": "Kd", "setting": "[3]", "value": 2270, "unit": "pM"}, {"measurement": "koff", "setting": "[3]", "value": 0.00123, "unit": "s⁻¹"}, {"measurement": "Kd", "setting": "[4]", "value": 350, "unit": "pM"}, {"measurement": "Kd", "setting": "[5]", "value": 353, "unit": "pM"}, {"measurement": "IC50", "setting": "[6]", "value": 960, "unit": "pM"}, {"measurement": "Kd", "setting": "[7]", "value": 476, "unit": "pM"}, {"measurement": "IC50 of dose-dependent inhibition of NFkB signal transduction (luciferase reporter)", "setting": "[8]", "value": 150, "unit": "pM"}]}
{"binder": "B2", "values": [{"measurement": "Ratio cKD/hKD", "setting": "[1]", "value": 1.3}, {"measurement": "Kd", "setting": "[2]", "value": 2570, "unit": "pM"}, {"measurement": "koff", "setting": "[2]", "value": 0.00038, "unit": "s⁻¹"}, {"measurement": "Kd", "setting": "[3]", "value": 3350, "unit": "pM"}, {"measurement": "koff", "setting": "[3]", "value": 0.000345, "unit": "s⁻¹"}, {"measurement": "Kd", "setting": "[4]", "value": 857, "unit": "pM"}, {"measurement": "IC50", "setting": "[6]", "value": 1020, "unit": "pM"}, {"measurement": "Kd", "setting": "[7]", "value": 4130, "unit": "pM"}]}
